The results in this text go back to patent US20170320956A1 (KYMAB, published 2017).

Substitutions are numbered along the chain they refer to. Where two headings read alike, the source gives them in different places.

Test [1] deals with T1, recombinant human LIGHT-214E, FLAG-tagged extracellular domain (human).
T1 chain: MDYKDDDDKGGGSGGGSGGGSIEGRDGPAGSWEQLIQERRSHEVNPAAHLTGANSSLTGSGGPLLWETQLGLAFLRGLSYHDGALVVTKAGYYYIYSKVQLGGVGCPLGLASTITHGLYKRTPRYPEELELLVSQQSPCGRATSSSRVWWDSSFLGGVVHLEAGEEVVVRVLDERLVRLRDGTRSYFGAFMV
Put plainly: cell-based or functional assay.

In test [2] the target is T2, mouse LIGHT (mouse, UniProt Q9QYH9 72-239, limits assumed).
T2 construct: also called murine LIGHT
T2 sequence (looked up): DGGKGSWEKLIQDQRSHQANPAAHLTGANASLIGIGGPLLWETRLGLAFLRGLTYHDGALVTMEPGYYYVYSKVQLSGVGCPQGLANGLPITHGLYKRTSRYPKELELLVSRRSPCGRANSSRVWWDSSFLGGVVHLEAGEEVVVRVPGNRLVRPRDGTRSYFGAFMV
The test is described as follows: SPR ProteOn, mAb captured on anti-human IgG.

Test [3] deals with T1, recombinant human LIGHT-214E, …. The test is described as follows: HTRF competition, AlexaFluor 647 HVEM-Fc binding to Flag-hLIGHT-214E. In general terms: TR-FRET usually uses a lanthanide donor and a delayed reading to cut background.
Test [4] shares this target. Put plainly: HTRF competition, AlexaFluor 647 LTβR-Fc binding to Flag-hLIGHT-214E.
The target of test [5] is T3, recombinant human LIGHT-214K, FLAG-tagged extracellular domain (human).
T3 construct: the IgK leader peptide is marked only by underlining (not visible here), so its residues were not removed; Trimer
T3 chain: T1 chain with E166K
The test is described as follows: SPR ProteOn, mAb captured on anti-human IgG, 25 C, apparent affinity.

The target of test [6] is T1, recombinant human LIGHT-214E, …. Put plainly: cell-based or functional assay.
Test [7] concerns the target T4, rabbit LIGHT protein, FLAG-tagged extracellular domain (rabbit).
T4 chain: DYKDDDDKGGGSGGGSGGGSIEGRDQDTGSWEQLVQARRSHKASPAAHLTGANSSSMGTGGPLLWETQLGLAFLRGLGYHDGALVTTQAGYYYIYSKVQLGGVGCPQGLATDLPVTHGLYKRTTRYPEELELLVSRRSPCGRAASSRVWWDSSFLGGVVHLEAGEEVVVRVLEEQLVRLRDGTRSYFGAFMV
Put plainly: SPR ProteOn, mAb captured on anti-human IgG, 25 C. How it is done:
This created a capture surface suitable for capturing human antibodies. The LIGHT antibodies were captured on this anti-human IgG surface, and then human and rabbit LIGHT proteins were passed over captured LIGHT Abs at a concentration of 200 nM. A buffer injection was used to double reference the LIGHT binding sensorgrams. The assay was run at 25° C., using HBS-EP as running buffer.

In test [8] the target is T1, recombinant human LIGHT-214E, …. Put plainly: SPR ProteOn, mAb captured on anti-human IgG, 37 C.
Test [9] has as its target T5, recombinant cynomolgus monkey LIGHT, FLAG-tagged extracellular domain (cynomolgus (Macaca fascicularis), UniProt E9NVF7 59-240).
T5 construct: extracellular domain; also called cynomolgus LIGHT; cyno LIGHT
The test is described as follows: SPR ProteOn, mAb captured on anti-human IgG, 37 C.

Test [10] addresses T1, recombinant human LIGHT-214E, …. Put plainly: HTRF competition, AlexaFluor 647 HVEM-Fc binding to Flag-hLIGHT-214E. The protocol: (§1) The following methods were carried out with a titration of inhibitor in order to establish the clone potency as measured by IC50 values in the assay. 5 μl of Flag-tagged hLIGHT (in-house) diluted to 2.5 nM final concentration (10 nM working concentration) in HTRF buffer with 5 μl of a titration of antibody purified from hybridoma supernatant diluted in HTRF assay buffer from 300 nM final (1200 nM working concentration) was pre-incubated for 1 hour at room temperature. To wells used to define total binding, 5 μl of LIGHT (10 nM working, 2.5 nM final) and 5 μl of hybridoma maintaining media (HMM,)) were added. To wells used to define non specific binding (receptor only) 10 μl of HMM was added. Total and non specific binding wells were pre-incubated for 1 hr at RT in the same plate as wells containing titration of inhibitor.
(§2) The final IgG4(PE) format lead panel was analysed for neutralization activity as in Example 3. Antibodies were tested for their ability to neutralize LIGHT binding to its receptors, HVEM and LTβR, in an HTRF assay. Antibodies were also tested for their ability to neutralize LIGHT-induced IL-8 release by HT29 colon carcinoma cells.
(§3) HTRF assays were performed as per Example 3, with the following modifications: HVEM-Fc and LTβR-Fc were labelled with AlexaFluor 647, and an anti-Flag K antibody (Cisbio) was used for detection.

Test [11] shares this target. The test is described as follows: HTRF competition, AlexaFluor 647 LTβR-Fc binding to Flag-hLIGHT-214E. The protocol: as §1, §2, §3
Test [12] addresses human LIGHT-214E, full length, expressed on the surface of CHO-S cells (human, UniProt O43557 1-240). Put plainly: FACS, CHO-S cells expressing hLIGHT-214E. On the technique in general: A flow cytometer gives signals particle by particle.
The target in test [13] is T2, mouse LIGHT. The test is described as follows: SPR ProteOn, mAb captured on anti-mouse IgG.
In test [14] the target is T1, recombinant human LIGHT-214E, …. The test is described as follows: HTRF competition, HVEM-Fc binding to Flag-hLIGHT-214E. The protocol:
as §1

Test [15] has the same target. The test is described as follows: HTRF competition, LTβR-Fc binding to Flag-hLIGHT-214E. The protocol:
as §1
LIGHT receptor was diluted in HTRF assay buffer and added to all wells, 5 μl/well of HVEM-Fc or LTβR-Fc (R&D systems) at 1.2 nM for HVEM (0.3 nM final) and 0.4 nM for LTβR (0.1 nM final).

Test [16] has the same target. Put plainly: SPR ProteOn, mAb captured on anti-mouse IgG, LIGHT 256 nM, 25 C, apparent affinity. How it is done:
(§4) SPR analysis was carried out using the ProteOn™ XPR36 Array System (BioRad). Anti-mouse IgG (GE Healthcare BR-1008-38) was immobilised on a GLC biosensor surface using amine coupling, the surface was then blocked using 1M ethanolamine. […] Apparent affinities for the LIGHT-antibody interaction were determined using the 1:1 model inherent to the ProteOn XPR36 analysis software. The assay was run using HBS-EP (Teknova) as running buffer and carried out at 25° C.

In test [17] the target is T3, recombinant human LIGHT-214K, …. The test is described as above. The protocol:
as §4

Test [18] has as its target T5, recombinant cynomolgus monkey LIGHT, …. Described as above. How it is done:
as §4
Target sequence in this assay (E9NVF7 entry or part of it): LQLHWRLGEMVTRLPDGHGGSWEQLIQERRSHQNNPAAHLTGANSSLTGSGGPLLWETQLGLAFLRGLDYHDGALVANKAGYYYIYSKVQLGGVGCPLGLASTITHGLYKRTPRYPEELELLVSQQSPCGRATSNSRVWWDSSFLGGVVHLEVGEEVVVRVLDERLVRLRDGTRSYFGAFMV

For test [19], the target named is T3, recombinant human LIGHT-214K, …. Put plainly: SPR ProteOn, mAb captured on anti-human IgG, 37 C.

B1: 01C06 in human IgG4(PE) format (antibody, V domains shown)
VH: QVQLVESGGGLVKPGGSLRLSCAASGFTFSDYYMNWIRQAPGKGLEWIADISSRDNTIYYADSVKGRFTISRDNAKNSLYLQMNSLRAEDTAVYYCARERGFGDYFGMDVWGQGTTVTVSS
VL: AIQLTQSPSSLSASVGDRVTIACRASQDISSALAWFRQTPGKTPKLLIYDASSLESGVPSRFLGSGSGTDFTLTISSLQPEDFAIYYCQQFNTYPLTFGGGTKVEIK
As a reminder, the IC50 is the concentration needed to halve the response being measured. In the case of B1, in test [1], the “HT29 IL-8 release, IC50” value came to 0.556 nM. The values for the binding result (with mouse LIGHT [2]; in test [5]) were “no binding” and “binds”, respectively. For the same molecule, the IC50 in test [3] turned out to be 0.698 nM; in [4], 2.07 nM.

B2: 98C07 in human IgG4(PE) format (antibody, V domains shown)
VH: QVQLVESGGGLVKPGGSLRLSCAASGFTFSDYYMSWIRQAPGKGLEWVSYISRSSFIYYSESVKGRFTISRDNAKNSLYLQMNSLRAEDTAVYYCARWELSPFDYWGQGTLVTVSS
VL: DIQMTQSPSSLSASVGDRVTITCRASQGISNYLAWFQQKPGKAPKSLIYAASSLQSGVPSKFSGSGSGTDFTLTISSLQPEDFATYFCQQYNTYPFTFGPGTKVDIK
As for B2, the “HT29 IL-8 release, IC50” value in [6] amounted to 0.18 nM. Also, in test [7], the binding result is “binds”. For the same molecule, the Kd in [8] stood at 0.018 nM; in test [9] it was 0.202 nM. Further, the IC50 in [10] turned out to be 0.82 nM; in [11] it was 1.62 nM.

B3: 98C07 (purified from hybridoma supernatant, mouse IgG) (antibody, V domains shown)
VH: B2 VH
VL: B2 VL
notes: Murine C / human V chimeric IgG, kappa, purified from hybridoma supernatant
Turning to B3, the “HT29 IL-8 release, IC50” value in test [1] turned out to be 0.166 nM. Also, the binding result is given as “binds” in test [12] and “no binding” with mouse LIGHT [13]. The IC50 in test [14] was 1.08 nM; in test [15], 2.06 nM. The Kd in [16] amounted to 0.045 nM; in [17], 296 nM; in test [18], 0.257 nM.

B4: 01C02 in human IgG4(PE) format (antibody, V domains shown)
VH: QVQLVQSGAEVQKPGASVMVSCKASGYTFTYYGISWVRQAPGQGLEWMGWISANSGNTNYAQKFQGRVTMTTDTSTNTAYMELRSLRTDDTAVYYCAKGGVAVLEYWGQGTLVTVSS
VL: DIQLTQSPSFLSASVGDRVTITCWASQGISSYLAWYQQKPGKAPNLLIYVASTLQSGVPSRFSGSGSGTEFTLTISSLQPEDFATYYCQQLKIYPLTFGGGTKVEIK
As for B4, the “HT29 IL-8 release, IC50” value in test [1] was found to be 0.261 nM; in [6], 0.26 nM. For the same molecule, the binding result in the test with mouse LIGHT [2] is “no binding”; in [7] it was “binds”. In addition, in test [19], the Kd was 0.822 nM. Also, the IC50 was found to be 1.64 nM in test [3], 3.48 nM in test [4], 1.64 nM in test [10] and 3.48 nM in test [11].

B5: 13H04 in human IgG4(PE) format (antibody, V domains shown)
VH: QVQLVQSGAEVKKPGASVKVSCKASGYTFTSYGISWVRQAPGQGLEWMGWISAHNANTNYAQKLQGRVTMTTDTSTSTAYMELRSLRSDDTAMYYCARLYRNWFDPWGQGTLVTVSS
VL: QSALTQPASVSGSPGQSITISCTGTSSDVGGYNYVSWYQQHPGKAPKLMIYDVSKRPSGVSNRFSGSKSGNTASLTISGLQAEDEADYYCCSYAGSSTLLFGGGTKLTVL
Turning to B5, in [6], the “HT29 IL-8 release, IC50” value stood at 1.22 nM. For the same molecule, the binding result in test [7] was “binds”. Moreover, the Kd amounted to 0.293 nM in test [8], 0.401 nM in test [19] and 0.207 nM in test [9]. Besides, the IC50 in test [10] is 1.29 nM; in [11] it was 3.15 nM.

B6: 18E04 (purified from hybridoma supernatant, mouse IgG) (antibody, V domains shown)
VH: QVLLVQSGAEVKKPGASVKVSCKASGYTFTHFDINWVRQATGQGLEWMGWMNPDSDNTDYAQEFQGRVTMTRDTSISTAYMELSSLRSEDTAVYYCARGGTTLDYWGQGTLVTVSS
VL: SYELTQPPSVSVSPGQTARITCSGDALPKKYAYWYQQKSGQAPVLVIYEDSKRPSGIPERFSGSSSGTMATLTISGAQVEDEADYYCYSTDSSDNHVIFGGGTKLTVL
notes: Murine C / human V chimeric IgG, lambda, purified from hybridoma supernatant
Turning to B6, the “HT29 IL-8 release, IC50” value in test [1] came out at 0.327 nM. Further, the binding result is listed as “binds” in [12] and “no binding” with mouse LIGHT [13]. In addition, the IC50 was 1.32 nM in [14] and 1.64 nM in [15]. The Kd in [17] came out at 2.33 nM; in test [18], 3.11 nM.
